This experiment deals with T1, FHH-tagged Siah1, recombinant purified (UniProt Q8IUQ4 1-282, labeled with RED-tris-NTA 2nd generation dye (Monolith His-Tag labeling kit)).
T1 sequence (looked up): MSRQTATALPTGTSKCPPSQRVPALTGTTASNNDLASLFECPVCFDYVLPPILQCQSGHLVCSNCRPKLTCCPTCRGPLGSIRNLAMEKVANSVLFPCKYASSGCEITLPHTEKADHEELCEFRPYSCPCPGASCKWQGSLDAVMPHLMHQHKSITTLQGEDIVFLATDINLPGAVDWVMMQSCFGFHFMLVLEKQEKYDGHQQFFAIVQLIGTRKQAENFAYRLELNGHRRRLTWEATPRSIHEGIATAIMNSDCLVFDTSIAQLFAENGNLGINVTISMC
The experiment in a line: MST.

In general, Kd refers to the constant that tells how readily two partners part at equilibrium.

B1: n-terminus FLAG-tagged CacyBP, recombinant purified (natural protein, UniProt Q9HB71 1-228, looked up)
chain: MASEELQKDLEEVKVLLEKATRKRVRDALTAEKSKIETEIKNKMQQKSQKKAELLDNEKPAAVVAPITTGYTVKISNYGWDQSDKFVKIYITLTGVHQVPTENVQVHFTERSFDLLVKNLNGKSYSMIVNNLLKPISVEGSSKKVKTDTVLILCRKKVENTRWDYLTQVEKECKEKEKPSYDTETDPSEGLMNVLKKIYEDGDDDMKRTINKAWVESREKQAKGDTEF
Consider B1, for which the dissociation constant Kd is 9.8 µM.
